Laboratory results reported in US20200405868A1, “GEL-FORMING POLYPEPTIDES” (priority 2018, published 2020).
Entries after “also recorded” stand apart in the source; their conditions may differ. Where no end group is shown, it is not given here.

Assay: Compound gel-forming ability in water (visual inspection, tube tapping assay, tilted tube assay);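 further: peptides mixed with de-ionized water at about 22-25 °C, judged after 20 min by eye plus tube tapping (10 taps, moves counted) and 90° tilt mobility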
Assay type: physicochemical
Conditions: for gel formation at 11% w/w: 11% w/w in water; for gel formation at 20% w/w: 20% w/w in water; for Physical property at 11% w/w: Table 1, 11% w/w in aqueous solution, room temperature; for gel formation in aqueous solution, 11% / gel formation in aqueous solution, 20% / gel formation in aqueous solution, 6%: Table 3; for gel formation in aqueous solution, 11% / propensity to form gels, wild-type counterparts, 11%: 11% w/w; for gel formation in aqueous solution, 20% / propensity to form gels, wild-type counterparts, 20%: 20% w/w; for propensity to form gels, wild-type counterparts, 11% / propensity to form gels, wild-type counterparts, 20% / propensity to form gels, wild-type counterparts, 6%: Table 5; for gel formation in aqueous solution, 6% / propensity to form gels, wild-type counterparts, 6%: 6% w/w; for gel formation at 6% w/w: 6% w/w in water

Substance | gel formation at 11% w/w | gel formation at 20% w/w | Physical property at 11% w/w | gel formation in aqueous solution, 11% | gel formation in aqueous solution, 20% | propensity to form gels, wild-type counterparts, 11% | propensity to form gels, wild-type counterparts, 20% | gel formation in aqueous solution, 6% | propensity to form gels, wild-type counterparts, 6% | gel formation at 6% w/w
SYSMEHFRWGKPVGKKRRPVKVYP-OH [SEQ ID NO:33, reference compound] | does not form gel | does not form gel | AS/IS | AS/IS (AS/IS for aqueous solution or insoluble) | AS/IS (AS/IS for aqueous solution or insoluble) | AS/IS | AS/IS | – | – | –
VGVAPG-NH2 [SEQ ID NO:45, reference compound] | – | – | AS/IS | AS/IS (AS/IS for aqueous solution or insoluble) | – | AS/IS | – | AS/IS (AS/IS for aqueous solution or insoluble) | AS/IS | –
VKVKVKVKV(D-Pro)PTKVKVKVKV-miniPEG-RPKPQQFFGLM-NH2 [SEQ ID NO:286] | – | – | – | AS/IS (AS/IS for aqueous solution or insoluble) | – | – | – | AS/IS (AS/IS for aqueous solution or insoluble) | – | –
Y-(D-Ala)-GF(D-Leu)-NH2 [SEQ ID NO:22, reference compound] | do not form gels | – | AS/IS | AS/IS (AS/IS for aqueous solution or insoluble) | – | AS/IS | – | AS/IS (AS/IS for aqueous solution or insoluble) | AS/IS | do not form gels
Y-(D-Met)-FHLMD-NH2 [SEQ ID NO:21, reference compound] | do not form gels | – | AS/IS | AS/IS (AS/IS for aqueous solution or insoluble) | – | AS/IS | – | AS/IS (AS/IS for aqueous solution or insoluble) | AS/IS | do not form gels
YADAIFTNSYRKVLGQLSARKLLQDIMSR-NH2 [SEQ ID NO:35, reference compound] | does not form gel | does not form gel | AS/IS | AS/IS (AS/IS for aqueous solution or insoluble) | AS/IS (AS/IS for aqueous solution or insoluble) | AS/IS | AS/IS | – | – | –
YIGSR-NH2 [SEQ ID NO:39, reference compound] | – | – | AS/IS | AS/IS (AS/IS for aqueous solution or insoluble) | – | AS/IS | – | – | – | –
YNWNSFGLRF-NH2 [SEQ ID NO:6, reference compound] | form self-assembling gels; also recorded: semisolid gel | – | SS (SS for semisolid gel) | SS (SS for semisolid gel) | – | SS (An ability to form semisolid gel is represented by an SS) | – | SS (SS for semisolid gel) | SS (An ability to form semisolid gel is represented by an SS) | semisolid gel
YRQSMNNFQGLRSFGCRFGTCTVQKLAHQIYQFTDKDKDNVAPRSKISPQGY-NH2 [SEQ ID NO:2, reference compound] | – | – | SS (SS for semisolid gel) | SS (SS for semisolid gel) | – | – | – | AS/IS (AS/IS for aqueous solution or insoluble) | – | –
YRSRKYSSWY-NH2 [SEQ ID NO:46, reference compound] | – | – | AS/IS | AS/IS (AS/IS for aqueous solution or insoluble) | – | AS/IS | – | – | – | –
